B1: PTPN9 (parent)
chain: NKWTVQYNVSPLSWNVAVKFLMAR
B2: CDC25B (parent)
chain: FVDILESDLKDDDAVPPGMESLIS

Variants of: B1
Experiment: protein stability index of a GFP-peptide fusion (GPS, HEK-293T) (PSI 1-6); higher = more stable
Conditions: c terminus: a fixed tail appended
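Note: lentivirally expressed fusions sorted by FACS into six bins by GFP to DsRed ratio, PSI derived from sequencing read proportions per bin multiplied by bin number.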

In order of rising protein stability index:
1. NKWTVQYNVSPLSWNVAVKFLMAP  1.23
2. NKWTVQYNVSPLSWNVAVKFLMAF  1.41
3. NKWTVQYNVSPLSWNVAVKFLMAL  1.53
4. NKWTVQYNVSPLSWNVAVKFLEAR  1.73
5. NKWTVQYNVSPLSWNVAVKFLGAR  1.83
6. NKWTVQYNVSPLSWNVAVKFLMAS  1.83
7. NKWTVQYNVSPLSWNVAVKFLRAR  1.88
8. NKWTVQYNVSPLSWNVAVKFLMCR  1.95
9. NKWTVQYNVSPLSWNVAVKFLNAR  2.06
10. NKWTVQYNVSPLSWNVAVKFLTAR  2.09
11. NKWTVQYNVSPLSWNVAVKFLMAK  2.18
12. NKWTVQYNVSPLSWNVAVKFLMDR  2.21
13. NKWTVQYNVSPLSWNVAVKFLMAT  2.27
14. NKWTVQYNVSPLSWNVAVKFLPAR  2.29
15. NKWTVQYNVSPLSWNVAVKFLMPR  2.3
16. NKWTVQYNVSPLSWNVAVKFLHAR  2.36
17. NKWTVQYNVSPLSWNVAVKFLMAD  2.41
18. NKWTVQYNVSPLSWNVAVKFLMVR  2.43
19. NKWTVQYNVSPLSWNVAVKFLMIR  2.44
20. NKWTVQYNVSPLSWNVAVKFLMSR  2.48
21. NKWTVQYNVSPLSWNVAVKFLMNR  2.54
22. NKWTVQYNVSPLSWNVAVKFLMQR  2.55
23. NKWTVQYNVSPLSWNVAVKFLMRR  2.58
24. NKWTVQYNVSPLSWNVAVKFLMAC  2.63
25. NKWTVQYNVSPLSWNVAVKFLMAM  2.65
26. NKWTVQYNVSPLSWNVAVKFLMAY  2.66
27. NKWTVQYNVSPLSWNVAVKFLIAR  2.72
28. NKWTVQYNVSPLSWNVAVKFLMAG  2.72
29. NKWTVQYNVSPLSWNVAVKFLMFR  2.72
30. NKWTVQYNVSPLSWNVAVKFLKAR  2.73
31. NKWTVQYNVSPLSWNVAVKFLMAH  2.82
32. NKWTVQYNVSPLSWNVAVKFLMAQ  2.94
33. NKWTVQYNVSPLSWNVAVKFLMAV  2.97
34. NKWTVQYNVSPLSWNVAVKFLMYR  2.98
35. NKWTVQYNVSPLSWNVAVKFLYAR  3.05
36. NKWTVQYNVSPLSWNVAVKFLMAW  3.09
37. NKWTVQYNVSPLSWNVAVKFLMAN  3.31
38. NKWTVQYNVSPLSWNVAVKFLMHR  3.31
39. NKWTVQYNVSPLSWNVAVKFLMMR  3.33
40. NKWTVQYNVSPLSWNVAVKFLFAR  3.6
41. NKWTVQYNVSPLSWNVAVKFLMAA  3.97
42. NKWTVQYNVSPLSWNVAVKFLMLR  4.22

Variants of: B2
Experiment: as above
Conditions: c terminus: a fixed tail appended

In order of falling protein stability index:
1. PVDILESDLKDDDAVPPGMESLIS  5.46
2. HVDILESDLKDDDAVPPGMESLIS  5.4
3. QVDILESDLKDDDAVPPGMESLIS  5.4
4. SVDILESDLKDDDAVPPGMESLIS  5.39
5. EVDILESDLKDDDAVPPGMESLIS  5.37
6. TVDILESDLKDDDAVPPGMESLIS  5.31
7. NVDILESDLKDDDAVPPGMESLIS  5.3
8. FEDILESDLKDDDAVPPGMESLIS  5.29
9. DVDILESDLKDDDAVPPGMESLIS  5.24
10. GVDILESDLKDDDAVPPGMESLIS  5.23
11. KVDILESDLKDDDAVPPGMESLIS  5.17
12. FDDILESDLKDDDAVPPGMESLIS  5.14
13. FSDILESDLKDDDAVPPGMESLIS  5.04
14. AVDILESDLKDDDAVPPGMESLIS  5
15. RVDILESDLKDDDAVPPGMESLIS  4.96
16. FNDILESDLKDDDAVPPGMESLIS  4.96
17. LVDILESDLKDDDAVPPGMESLIS  4.81
18. FPDILESDLKDDDAVPPGMESLIS  4.8
19. FMDILESDLKDDDAVPPGMESLIS  4.76
20. FHDILESDLKDDDAVPPGMESLIS  4.68
21. FKDILESDLKDDDAVPPGMESLIS  4.67
22. MVDILESDLKDDDAVPPGMESLIS  4.59
23. FADILESDLKDDDAVPPGMESLIS  4.51
24. CVDILESDLKDDDAVPPGMESLIS  4.49
25. FTDILESDLKDDDAVPPGMESLIS  4.43
26. IVDILESDLKDDDAVPPGMESLIS  4.33
27. FRDILESDLKDDDAVPPGMESLIS  4.31
28. FYDILESDLKDDDAVPPGMESLIS  4.29
29. VVDILESDLKDDDAVPPGMESLIS  4.08
30. FFDILESDLKDDDAVPPGMESLIS  4.08
31. FQDILESDLKDDDAVPPGMESLIS  3.98
32. YVDILESDLKDDDAVPPGMESLIS  3.83
33. FGDILESDLKDDDAVPPGMESLIS  3.81
34. FIDILESDLKDDDAVPPGMESLIS  3.8
35. FLDILESDLKDDDAVPPGMESLIS  3.73
36. FCDILESDLKDDDAVPPGMESLIS  3.65
37. FVEILESDLKDDDAVPPGMESLIS  3.46
38. FWDILESDLKDDDAVPPGMESLIS  3.32
39. FVQILESDLKDDDAVPPGMESLIS  3.04
40. FVPILESDLKDDDAVPPGMESLIS  2.93
41. FVHILESDLKDDDAVPPGMESLIS  2.91
42. FVGILESDLKDDDAVPPGMESLIS  2.83
43. FVNILESDLKDDDAVPPGMESLIS  2.81
44. FVIILESDLKDDDAVPPGMESLIS  2.75
45. FVAILESDLKDDDAVPPGMESLIS  2.65
46. FVKILESDLKDDDAVPPGMESLIS  2.65
47. WVDILESDLKDDDAVPPGMESLIS  2.5
48. FVCILESDLKDDDAVPPGMESLIS  2.4
49. FVRILESDLKDDDAVPPGMESLIS  2.12
50. FVLILESDLKDDDAVPPGMESLIS  1.93
51. FVMILESDLKDDDAVPPGMESLIS  1.92
52. FVFILESDLKDDDAVPPGMESLIS  1.6
